Data on 94 variants can be found in the supplement of paper PMC10567573.

To fix the notation:
B1: SMG5 (parent)
chain: TRKLSPGKKRCKDIKRLLVNFMYL
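Note: lentivirally expressed fusions sorted by FACS into six bins by GFP to DsRed ratio, PSI derived from sequencing read proportions per bin multiplied by bin number.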

The variants in this data set derive from B1. As to the kind of experiment: protein stability index of a GFP-peptide fusion (GPS, HEK-293T) (PSI 1-6); higher = more stable. The conditions noted are these: c terminus: a fixed tail appended.
As for TRKLSPGKKRCKDEKRLLVNFMYL [I14E], the protein stability index amounted to 1.32. As for TRKLSPGKKRCKDCKRLLVNFMYL [I14C], the protein stability index was determined as 3.55. Consider TRKLSPGKKRCKDQKRLLVNFMYL [I14Q], for which the protein stability index was 1.5. As to TRKLSPGKKRCKDMKRLLVNFMYL [I14M], the protein stability index stood at 2.34.

As for TRKLSPGKKRCKDIKRLLVNFMYC [L24C], the protein stability index is 1.39. The same measure for TRKLSPGKKRCKDIKRLLVNFMYD [L24D]: 1.2; for TRKLSPGKKRCKDIKRLLVNFMYF [L24F]: 2.53; for TRKLSPGKKRCKDIKRLLVNFMYS [L24S]: 1.98.

As for TRKLSPGKKRCKDIKRLLVNFMYW [L24W], the protein stability index stood at 1.9. The result for TRKLSPGKKRCKDIKRLLVNFMYK [L24K] reads 2.46. As for TRKLSPGKKRCKDIKRLLVNFMYA [L24A], the protein stability index was 2.34. The result for TRKLSPGKKRCKDIKRLLVNFMYH [L24H] reads 1.55. Turning to TRKLSPGKKRCKDIKRLLVNFMYI [L24I], the protein stability index was 4.07.

Regarding TRKLSPGKKRCKDIKRLLVNFMYM [L24M], the protein stability index stood at 3.

With TRKLSPGKKRCKDIKRLLVNFMYG [L24G], the protein stability index was 2.92. Consider TRKLSPGKKRCKDIKRLLVNFMYR [L24R], for which the protein stability index came out at 2.39. The same measure for TRKLSPGKKRCKDIKRLLVNFMYP [L24P]: 2.63; for TRKLSPGKKRCKDIKRLLVNFMYT [L24T]: 2.02; for TRKLSPGKKRCKDIKRLLVNFMYQ [L24Q]: 2.04. The same measure for TRKLSPGKKRCKDIKRLLVNFMYE [L24E]: 1.96; for TRKLSPGKKRCKDIKRLLVNAMYL [F21A]: 1.76; for TRKLSPGKKRCKDIKRLLVNTMYL [F21T]: 1.99. The same measure for TRKLSPGKKRCKDIKRLLVNIMYL [F21I]: 3.19; for TRKLSPGKKRCKDIKRLLVNKMYL [F21K]: 2.12. Regarding TRKLSPGKKRCKDIKRLLVNNMYL [F21N], the protein stability index was found to be 1.97. The result for TRKLSPGKKRCKDIKRLLVNSMYL [F21S] reads 2.88. The same measure for TRKLSPGKKRCKDIKRLLVNYMYL [F21Y]: 1.76. The result for TRKLSPGKKRCKDIKRLLVNGMYL [F21G] reads 1.63; that for TRKLSPGKKRCKDIKRLLVNEMYL [F21E], 1.75; that for TRKLSPGKKRCKDIKRLLVNCMYL [F21C], 1.21.

Turning to TRKLSPGKKRCKDIKRLLVNQMYL [F21Q], the protein stability index is 1.71.

On to TRKLSPGKKRCKDIKRLLVNWMYL [F21W], for which the protein stability index was found to be 1.91. For TRKLSPGKKRCKDIKRLLVNRMYL [F21R], the protein stability index turned out to be 1.88. As for TRKLSPGKKRCKDIKRLLVNPMYL [F21P], the protein stability index was 1.6. As to TRKLSPGKKRCKDIKRLLVNHMYL [F21H], the protein stability index worked out at 1.49. Consider TRKLSPGKKRCKDIKRLLVNDMYL [F21D], for which the protein stability index came to 2.37.

For TRKLSPGKKRCKDIKRGLVNFMYL [L17G], the protein stability index came out at 3.06. As for TRKLSPGKKRCKDIKRHLVNFMYL [L17H], the protein stability index was 1.3. Regarding TRKLSPGKKRCKDIKRPLVNFMYL [L17P], the protein stability index was 1.5.

Take TRKLSPGKKRCKDIKRQLVNFMYL [L17Q]: the protein stability index came to 1.5. The result for TRKLSPGKKRCKDIKRFLVNFMYL [L17F] reads 3.34; that for TRKLSPGKKRCKDIKRDLVNFMYL [L17D], 2.24; that for TRKLSPGKKRCKDIKRMLVNFMYL [L17M], 2.12. On to TRKLSPGKKRCKDIKRELVNFMYL [L17E], for which the protein stability index was 1.55.

Consider TRKLSPGKKRCKDIKRRLVNFMYL [L17R], for which the protein stability index worked out at 1.84. TRKLSPGKKRCKDIKRVLVNFMYL [L17V]: the protein stability index turned out to be 1. The result for TRKLSPGKKRCKDIKRKLVNFMYL [L17K] reads 2.64; that for TRKLSPGKKRCKDIKRTLVNFMYL [L17T], 1.9; that for TRKLSPGKKRCKDIKRYLVNFMYL [L17Y], 2.65. On to TRKLSPGKKRCKDIKRSLVNFMYL [L17S], for which the protein stability index worked out at 2.56.

As to TRKLSPGKKRCKDIKRALVNFMYL [L17A], the protein stability index was 1.77. The same measure for TRKLSPGKKRCKDIKRLLCNFMYL [V19C]: 2.31; for TRKLSPGKKRCKDIKRLLNNFMYL [V19N]: 2.21; for TRKLSPGKKRCKDIKRLLLNFMYL [V19L]: 3.43.

In the case of TRKLSPGKKRCKDIKRLLYNFMYL [V19Y], the protein stability index is 4.05. The result for TRKLSPGKKRCKDIKRLLGNFMYL [V19G] reads 2.1. The result for TRKLSPGKKRCKDIKRLLPNFMYL [V19P] reads 2.62. The same measure for TRKLSPGKKRCKDIKRLLHNFMYL [V19H]: 2.72; for TRKLSPGKKRCKDIKRLLDNFMYL [V19D]: 2.34; for TRKLSPGKKRCKDIKRLLTNFMYL [V19T]: 1.84. Consider TRKLSPGKKRCKDIKRLLQNFMYL [V19Q], for which the protein stability index worked out at 2.26. The same measure for TRKLSPGKKRCKDIKRLLSNFMYL [V19S]: 2.12. The same measure for TRKLSPGKKRCKDIKRLLENFMYL [V19E]: 1.68; for TRKLSPGKKRCKDIKRLLMNFMYL [V19M]: 2.59; for TRKLSPGKKRCKDIKRLLINFMYL [V19I]: 1.66.

Regarding TRKLSPGKKRCKDIKRLNVNFMYL [L18N], the protein stability index was found to be 1.55. For TRKLSPGKKRCKDIKRLCVNFMYL [L18C], the protein stability index came out at 1.52.

In the case of TRKLSPGKKRCKDIKRLHVNFMYL [L18H], the protein stability index worked out at 1.6. The same measure for TRKLSPGKKRCKDIKRLKVNFMYL [L18K]: 1.54; for TRKLSPGKKRCKDIKRLRVNFMYL [L18R]: 1.68. The result for TRKLSPGKKRCKDIKRLGVNFMYL [L18G] reads 2.35; that for TRKLSPGKKRCKDIKRLYVNFMYL [L18Y], 2.5; that for TRKLSPGKKRCKDIKRLQVNFMYL [L18Q], 1.95. For the variant TRKLSPGKKRCKDIKRLFVNFMYL [L18F], the protein stability index was 2.21. The same measure for TRKLSPGKKRCKDIKRLMVNFMYL [L18M]: 3.27; for TRKLSPGKKRCKDIKRLVVNFMYL [L18V]: 2.52.

Turning to TRKLSPGKKRCKDIKRLSVNFMYL [L18S], the protein stability index was determined as 1.88.

In the case of TRKLSPGKKRCKDIKRLTVNFMYL [L18T], the protein stability index was determined as 1.65. For the variant TRKLSPGKKRCKDIKRLAVNFMYL [L18A], the protein stability index worked out at 1.41.

Take TRKLSPGKKRCKDIKRLPVNFMYL [L18P]: the protein stability index was 2.48. The result for TRKLSPGKKRCKDIKRLEVNFMYL [L18E] reads 2.16; that for TRKLSPGKKRCKDIKRLDVNFMYL [L18D], 1.76; that for TRKLSPGKKRCKDINRLLVNFMYL [K15N], 3.35. The same measure for TRKLSPGKKRCKDIDRLLVNFMYL [K15D]: 1.3. On to TRKLSPGKKRCKDIWRLLVNFMYL [K15W], for which the protein stability index is 2.09. Take TRKLSPGKKRCKDILRLLVNFMYL [K15L]: the protein stability index came out at 2.08.

Consider TRKLSPGKKRCKDIQRLLVNFMYL [K15Q], for which the protein stability index is 1.64. As for TRKLSPGKKRCKDITRLLVNFMYL [K15T], the protein stability index amounted to 3.37.

Take TRKLSPGKKRCKDIERLLVNFMYL [K15E]: the protein stability index stood at 3.46. The result for TRKLSPGKKRCKDIMRLLVNFMYL [K15M] reads 2.66. As for TRKLSPGKKRCKDIGRLLVNFMYL [K15G], the protein stability index is 1.85.

In the case of TRKLSPGKKRCKDIPRLLVNFMYL [K15P], the protein stability index was 2.23.

TRKLSPGKKRCKDIARLLVNFMYL [K15A]: the protein stability index was found to be 3.83. For TRKLSPGKKRCKDIVRLLVNFMYL [K15V], the protein stability index worked out at 4.58.
